The target in one test is T1, proteasome.
T1 construct: from tissue
Put plainly: Binding of PA28 carboxy-terminal peptides to the proteasome. The text has this: (§1) Therefore, this peptide or a compound with similar properties may be used to block the action of the proteasome in intact cells. Such a compound or analogs having similar binding activity may be used to control accelerated rates of intracellular protein degradation. The peptide has the sequence: Acetyl-KNFEKLKKPRGETKGMIY (SEQ ID NO. 3). The N-terminal lysine may be acetylated if needed for stability. […] Therefore, the C-terminal Ile-Tyr amino acids or their functional equivalents appear to be important for binding of the 18-mer to the proteasome and for inhibition of the activation of the proteasome by activating factors PA28 and PA700. An equivalent of the 18-mer may comprise less than 18 amino acids or may comprise functionally equivalent amino acid replacements which allow similar binding activity.

For test [1], the target named is T2, proteasome activation by PA700.
T2 construct: from tissue
Put plainly: Inhibition of proteasome activation by PA700 by C18 peptide. Type of test: biochemical. The conditions noted are these: for inhibition of proteasome activation by PA700: FIG. 27; for effect of peptide alone on proteasome activity: no activator. On the procedure:
Activation of the proteasome by PA700 was performed in the presence of the indicated concentrations of purified C18 peptide.
as §1

The target of test [2] is T3, proteasome activation by PA28.
T3 construct: from tissue
In words: Inhibition of PA28-activated proteasome by carboxy-terminal peptide. Type of test: biochemical. The conditions noted are these: for inhibition of proteasome activation by PA28: 0.5 μg proteasome, 1 μg PA28 (FIG. 26). On the procedure:
Proteasome activity in the absence of PA28 was 1.2 units/assays. Assays contained 0.5 μg of proteasome and 1 μg of PA28.
as §1

Test [3] has as its system proteasome (latent and active forms). The conditions noted are these: cited from earlier work.
The mark [4] stands for this setting: listed as 18 amino acid peptide.

Ends that are not written are not given here.

For “Acetyl-KNFEKLKKPRGETKGMIY (Ac-KNFEKLKKPRGETKGMIY) [C18, 18 amino acid peptide corresponding to the carboxyterminal 18 amino acids of PA28]”, the “binding to the proteasome” value with proteasome was “does bind to it”. The “inhibition of proteasome activation by PA700” value in test [1] is “competitively inhibits proteasome activation by PA700”; in test [1] (setting [4]), “competitively inhibits the binding and activation of proteasome activator, PA700”. Also, the “effect of peptide alone on proteasome activity” value is listed as “had no effect on baseline proteasome activity” in test [1] and “does not activate the proteasome” in test [1] (setting [4]). Also, the “inhibition of proteasome activation by PA28” value in test [2] was “inhibition of PA28-activated proteasome”; in test [2] (setting [4]), “competitively inhibits binding and activation of PA28”.
Turning to Ile-Tyr, in test [2] (kind of activity not specified further), the “activity of the dipeptide by itself” value was “very weak activity”.

B1: PI31: inhibitor protein of the proteasome purified from bovine red blood cells, Mr=31,000 subunit (protein, UniProt Q3SX30 2-270, looked up)
Proteasome inhibitor PI31 …: AGLEVLFASAAPAITCAQDALVCFLHWEVVTHGYYGLGAGDQPGPNDKKSELLPVEWNSNKDLYVLRYESKDGSRKLLVKAVTVENSMIINVLEHGSQQVSDLTLNLNDYIDSEHLVDFHRVYKNSEELRSRIVSGIITPIHEQWEKANLSPHREFPPATAREVDPLRIHPQHPHTSRQPTWCDPLGPFAVGGEDLDPFGCRRGGMIVDPLRSGFPRALIDPSSGLPNRLPPGAVPPGARFDPFGPIGTSPSGPNPDHLPPPGYDDMYL
With B1, in test [3], the “inhibition of peptidase and protease activities of the proteasome” value was “inhibited all of the peptidase and protease activities of both the latent and active forms of the proteasome by a non-competitive mechanism”.

The values above are taken from patent publication US5847076A, “Regulators of the proteasome” (Board of Regents, The University of Texas System, priority 1993, dated 1998).
